According to the DeepSol protein solubility set:

test: soluble on expression in E. coli; label from the status in PepcDB or PDB records

Soluble on expression in E. coli, soluble:
MSLSTKDVKELAIEQAKKFGGKLEVCPKVPIETKADLGIAYTPGVAAVSSAIHEKKERAYELTTKKNTVAVISDGSAVLGLGNIGPEAAMPVMEGKAALFKRFAGVDSIPLVLDTQDTEEIIQTVKFLAPTFGGINLEDISAPRCFEIEQRLIDELDIPVFHDDQHGTAIVVLAALYNSLKLINKKIEDIHVVINGGGSAGLSITRKFLAAGVKHIIIVDRAGILSETDTALPPHHAEIAKLTNREHRTGDLATALEGADVFVGVSAPGVLKPEWIQQMNEQPVIFAMANPVPEIFPDEALAAGAYIVGTGRSDFPNQINNVLAFPGIFRGALDARAKKITIEMQIAAAKGIAKLIPDNELTPTNIIPDPFQEGVAKVVAESVRNAVKETNEGHHHHHH, MSKVKTRFAPSPTGYLHLGNARTAIFSYLFARHNNGGFVLRIEDTDPERSKKEYEEMLIEDLKWLGIDWDEFYRQSERFDIYREYVNKLLESGHAYPCFCTPEELEKEREEARKKGIPYRYSGKCRHLTPEEVEKFKKEGKPFAIRFKVPENRTVVFEDLIKGHIAINTDDFGDFVIVRSDGSPTYNFVVVVDDALMGITHVIRGEDHIPNTPKQILIYEALGFPVPKFAHLPVILGEDRSKLSKRHGAVSVRAYREEGYMPEALFNYLCLLGWSPPEEGREIFSKEELIKIFDLKDVNDSPAVFNKEKLKWMNGVYIREVLPLDVLLERAIPFLEKAGYDTSDREYIKKVLEYTRDSFDTLSEMVDRLRPFFVDEFEIPEELWSFLDDEKAYQVLSAFLEKIREKKPETPQEVKKLAKEIQKALKVKPPQVWKPLRIALTGELEGVGIDILIAVLPKEKIEKRILRVLEKLS, EEGLSGSKTFKIITKDYDIMNKEIKERLGRYCTFTKVTIDEENNSFVEISCVINKLEEQKLKEIINDVDPDAFIAIYDTAEVKAGNMKKSDIY, GPGSMLNTFMFPGQGSQAKGMGGALFDRFADLTAQADAVLGYSIRALCVDDPRDELGRTQFTQPALYVVNALTYYAKCEDSGETPDFLAGHSLGEFNALLAAGCFDFETGLKLVARRAELMSQARDGAMAAIVNASREQIERTLDEHGLVDTAIANDNTPSQLVISGPAHEIARAEALFQHDRVRYLRLNTSGAFHSKFMRPAQQAFAAHLQSFRLADPAIPVISNVSARPYENGRVSEGLAQQIASPVRWCESIRYLLALAAERGEAIEFTELGHGDVLTRLVHTIRRQTPAPAAAATSARARPTPPGEPERPAQQTAAAPRASDSASASLGAAERVAAWNRDYPVGTRVRSSLIHDDVLETRTPATVLFGHRAAVYMKGYNGYFDLAEVTPA

Soluble on expression in E. coli, not soluble:
SAEGEDVGWWRSWLQQSYQAVKERSTEALEFMKRDLTEFTQVVQHDTACTIAATASVVKEKLATEGSSGATEKVKKGLSDFLGVISDTFAPSPDKTIDCDVITLMGTPSGTAEPYDGTKARLYSLQSDPATYCNEPDGPPELFDAWLSEFCLEEKKGEISELLVGSPSIRALYTKMVPAAVSHSEFWHRYFYKVHQLEQEQARRDALKQRADQSISEEPGWEEEEEELEGIVPSPKEAKIPKETKTTTSPEDEPAPQSPCEETPVEPPAEATPSESSESISLVTQVANPAAAPEAPELPKDLSQKLFEASLEEQSLAEDEGETGPPPPPPSKPLTPAGRASGPEPRPPARVETLREEVPTDLRVFELNSDSGKSTPSNNGKKGSSTDISEDWEKDFDLDMTEEEVQMALSKVDASGELEDVEWEDWE, MGSSHHHHHHGKTIFVIVPTNEEQVAFLEALAKQDELNFDWQNPPTEPGQPVVILIPSDMVEWFLEMLKAKGIPFTVYVEEGGSENLYFQGGGGGGRSSRHLCGLPTVRTVAATGWRYHRHGAPEKVLQYERYRVPFDRTSGQVVVKMLAAPVHRHDKNLIEGHGGPIAVPKACLPHVAGVEGVGVVEEVGSNAKLALKEGDMVWINNPSVGSWATHIVTDAENLDVVPCRADVDIEYLASLSLFHTAYHLTHDFVNIQPNDVVLQTGASSSIAQICQGYLRAKGAKLFQTMQLGRTEHAHLLAFFKLRGAFAVVPYNYARTNYMRRLLSDVPPPKLLLNHTCGGYASNLVNLLGDNGVCVTYGNTSHQPMQISNMDAIARGVQFKGFFLPSWIRRHTREARMRVHQNVVESMTITQGHGIFRAQRFKMDGDSAFAFSNAWDAPLASRKAVLRIVGEYGEWRRPRSDQAGWNIGRAVWEDMLQQMWESAGTTENPQSMKYYTPFDDIHSSFYDAKQSKELGHRDVFFRRPNAPRHNAAEQQQ, MGSDKIHHHHHHMAIILGGMVPRPPWKYRLLAAIHAHRNAGDPGADPLVRRAVERLVAVTSRVVFGVEKPGWITSGASEGNLLALYTLREEGYRRVVAFDTSHYSIKKSALTLSMELDLLPTHGGRPRLDLLERRITPDSVVVATVGTTQEGLVDPVEEIAGVAESVGAAVHVDAAYGGYIARFLTGKARFRLEPPVMTVVVDAHKIPEAPPPAGVILASKQKLLDNLWFESPYIPTGRQFGILGTRPGGPIVAAWRRVEDLERNPGFPRLASILMRRLRKTLKALERLGYETPVTPDLPVACATHPRLGEVLERLKASGVRVYRCRSPKPCLHVTNYGRLCRARLGSSRSPRGCLRKPLGASLGNPGVTGLGL, ELLVVTGMSGAGKSLVIQSLEDMGFFCVDNLPPVLLPKFVELMAQGNPSLQKVAIAIDLRGKELFKSLVKEIDIIKSRNDVILDVMFLEAKTEKIISRYKESRRAHPLNEQGQRSLIDAINEEREHLSEIRSIANYVIDTTKLKPKELKQRISKFYLDENFETFTINVTSFGFKHGIQMDADLVFDVRFLPNPYYVEELRPFTGLDEPVYNYVMKWKETQIFFDKLTDLLKFMIPGYKKEGKSQLVIAIGCTGGQHRSVALAKRLAEYLNEIFEYNVYVHHRDAHIE, PTSSTTATLVMGDALAVALLKARGFTAEDFALSHPGGALGRKLLLRVNDIMHTGDEIPHVKKTASLRDALLEVTRKNLGMTVICDDNMMIEGIFTDGDLRRVFDMGVDVRRLSIADVMTPGGIRVRPGILAVEALNLMQSRHITSVMVADGDHLLGVLHMHDLLRA, MDTVVMSWWDFGHLFAVAADRPVTFDGGSQNTPRAYWIGKALTTSNETLSRGILTMLSTSGDLAYETLDNYTDDSGKTAEILTATLGLPREEARAVMTGRYGLSDKEADSVLRYSHPAKPKPFVLVLSSDMLGKAPWWTYFGTWDFKKKTGSRLEHHHHHH, MAHHHHHHMRSFMYMCRQVQGARFIQITRSRCGRTIPYKLADIGEGIKEVEVVTLYVKPGDRIGEFEKICEVQSDKATVEITSRYAGVITTVHIEAGEKAHVGEPIVDIEVNDTDETQKPSCGTVDCNVSDQFNNGGVPVAEEGDSCAADCTTEISKDFTKVLATPAVREFARSRGVNITDVKGTGKDGRVLREDVLSYAGKSCYNDDVVVRLDTGLRKAMVSSMTKAGSVPSFTACDEVEVSQLLNFQHILRDALNSSSEGVRDGSKVSLMPLFIKAASQSLLQYPELNAHVSSECDKLFVKKAHHIGFAMDTPKGLVVPVVRDVQQKSVAELVHEVNELVTLGRKSQIPPDRMKDGTFTLSNIGPIGAIYATPMLNPPQVAIGAIGRIQQLPRFDASGNVVRANILAMSWTADHRVIDGATLVRFSNAFKRCLESPGLLIAGEVA, MGSDKIHHHHHHMKIVKFGGSSLSSGVQIRKVFQIVKSDPERRIVVVSAPGKRFKGDVKITDLLLKLAEAILNEEKTAQIYEQIFLRYQAIGDFFKIPRSGIEQLKEHLYSVAQADYPSNDFFRAALSAQGENMSAHLITLIFKQLGLKARLLTPKEVGLTVSGEARKAQILPGSYAKIAKTKFTDNEVLIFPGFFGITKNGLINTFSRGGSDITGAILARGFGADLYENFTDVDSIYAVNPGLVADPAPIKEMTYNEMRELSYAGFAVFHDEAILPAIQGKIPICVKNTNRPEMPGTKIVPRDKVSHKNKITGIASSHHFQAIYLHRYLINREVGFTAKILKIMADLNISYEHMPSGIDDLTIILDKNQLTNGRKEKLTQRIKDEIQPDDLQWRNDYAIIMVVGEGLVNRVGAMADIVDPIRDAGISLTMVNQGSSEISIMLGVRPEDEQKAVKAIYNDHFENGHPKKELQIPRASFKSVSKSLIANFFV
